T1: chloroplast ATP synthase (cATPase) subunit γ (Spinacia oleracea, UniProt P05435 42-364)
T1 construct: ATP synthase gamma chain, chloroplastic, Spinacia oleracea; also called γ-subunit; source: purified from spinach leaves as part of the intact F1FO chloroplast ATP synthase
T1 sequence (looked up): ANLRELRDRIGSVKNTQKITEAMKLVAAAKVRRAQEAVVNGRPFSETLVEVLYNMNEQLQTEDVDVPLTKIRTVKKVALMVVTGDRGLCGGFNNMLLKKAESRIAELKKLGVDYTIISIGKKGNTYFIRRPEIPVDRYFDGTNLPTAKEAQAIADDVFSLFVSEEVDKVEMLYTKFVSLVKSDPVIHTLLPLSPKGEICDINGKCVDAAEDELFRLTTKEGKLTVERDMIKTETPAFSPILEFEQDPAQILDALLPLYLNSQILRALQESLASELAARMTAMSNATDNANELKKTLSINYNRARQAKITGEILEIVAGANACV

B1: cATPase subunit ε, dephosphorylated enzyme (natural protein, Spinacia oleracea, UniProt P00833 1-134, looked up)
chain: MTLNLCVLTPNRSIWNSEVKEIILSTNSGQIGVLPNHAPTATAVDIGILRIRLNDQWLTLALMGGFARIGNNEITILVNDAERGSDIDPQEAQQTLEIAEANLRKAEGKRQKIEANLALRRARTRVEASNTISS
notes: ATP synthase epsilon chain, chloroplastic, Spinacia oleracea; as m4 but treated with phosphatase; The whole complex was treated with the phosphatase; also called ε (dephosphorylated form)
B2: chloroplast ATP synthase (cATPase) subunit ε, untreated enzyme (natural protein, Spinacia oleracea, UniProt P00833 1-134, looked up)
chain: B1 chain
modifications: phosphosite identified at S13
notes: ATP synthase epsilon chain, chloroplastic, Spinacia oleracea; also called ε-subunit; source: purified from spinach leaves as part of the intact F1FO chloroplast ATP synthase
B3: cATPase subunit α, dephosphorylated enzyme (natural protein, Spinacia oleracea, UniProt P06450 1-507, looked up)
chain: MATIRADEISKIIRERIEGYNREVKVVNTGTVLQVGDGIARIHGLDEVMAGELVEFEEGTIGIALNLESNNVGVVLMGDGLMIQEGSSVKATGRIAQIPVSEAYLGRVINALAKPIDGRGEITASESRLIESPAPGIMSRRSVYEPLQTGLIAIDAMIPVGRGQRELIIGDRQTGKTAVATDTILNQQGQNVICVYVAIGQKASSVAQVVTNFQERGAMEYTIVVAETADSPATLQYLAPYTGAALAEYFMYRERHTLIIYDDLSKQAQAYRQMSLLLRRPPGREAYPGDVFYLHSRLLERAAKLSSLLGEGSMTALPIVETQAGDVSAYIPTNVISITDGQIFLSADLFNAGIRPAINVGISVSRVGSAAQIKAMKKVAGKLKLELAQFAELEAFAQFASDLDKATQNQLARGQRLRELLKQPQSAPLTVEEQVMTIYTGTNGYLDSLELDQVRKYLVELRTYVKTNKPEFQEIISSTKTFTEEAEALLKEAIQEQMERFLLQEQA
notes: ATP synthase subunit alpha, chloroplastic, Spinacia oleracea; as m1 but treated with phosphatase; The whole complex was treated; also called α (dephosphorylated form)
B4: chloroplast ATP synthase (cATPase) subunit II, untreated enzyme (natural protein, Spinacia oleracea, UniProt P31853 76-222, looked up)
chain: EEIEKASLFDFNLTLPIIMAEFLFLMFALDKIYYTPLGDFMDKRDASIKEQLSGVKDTSSEVKQLEEQANAVMRAARAEISAALNKMKKETQLEVEAKLAEGRKKIEVELQEALGSLEQQKEDTIKSLDSQISALSDDIVKKVLPVS
modifications: phosphosites identified at S122, S211
notes: ATP synthase subunit b' (CF0 subunit II), chloroplastic, Spinacia oleracea; also called stator subunit II; peripheral stalk subunit II; source: purified from spinach leaves as part of the intact F1FO chloroplast ATP synthase
B5: cATPase subunit II, dephosphorylated enzyme (natural protein, Spinacia oleracea, UniProt P31853 76-222, looked up)
chain: B4 chain
notes: ATP synthase subunit b' (CF0 subunit II), chloroplastic, Spinacia oleracea; as m6 but treated with phosphatase; The whole complex was treated with the phosphatase; also called II (dephosphorylated form)
B6: chloroplast ATP synthase (cATPase) subunit β, untreated enzyme (natural protein, Spinacia oleracea, UniProt P00825 1-498, looked up)
chain: MRINPTTSDPGVSTLEKKNLGRIAQIIGPVLDVAFPPGKMPNIYNALIVKGRDTAGQPMNVTCEVQQLLGNNRVRAVAMSATDGLTRGMEVIDTGAPLSVPVGGATLGRIFNVLGEPVDNLGPVDTRTTSPIHRSAPAFTQLDTKLSIFETGIKVVDLLAPYRRGGKIGLFGGAGVGKTVLIMELINNIAKAHGGVSVFGGVGERTREGNDLYMEMKESGVINEQNIAESKVALVYGQMNEPPGARMRVGLTALTMAEYFRDVNEQDVLLFIDNIFRFVQAGSEVSALLGRMPSAVGYQPTLSTEMGSLQERITSTKEGSITSIQAVYVPADDLTDPAPATTFAHLDATTVLSRGLAAKGIYPAVDPLDSTSTMLQPRIVGEEHYEIAQRVKETLQRYKELQDIIAILGLDELSEEDRLTVARARKIERFLSQPFFVAEVFTGSPGKYVGLAETIRGFQLILSGELDSLPEQAFYLVGNIDEATAKAMNLEMESKLKK
modifications: phosphosites identified at S8, T54
notes: ATP synthase subunit beta, chloroplastic, Spinacia oleracea; K498 is called the carboxy-terminal residue; Three copies stand in the F1 head (α3β3); also called β-subunit; source: purified from spinach leaves as part of the intact F1FO chloroplast ATP synthase
B7: cATPase subunit β, dephosphorylated enzyme (natural protein, Spinacia oleracea, UniProt P00825 1-498, looked up)
chain: B6 chain
notes: ATP synthase subunit beta, chloroplastic, Spinacia oleracea; as m2 but treated with phosphatase; The whole complex was treated with the phosphatase; also called β (dephosphorylated form)

Conditions in all cases: both partners purified
Assay [1] has as its target B3. As to the kind of experiment: cross-linking; comparative: dephosphorylated cATPase (calf intestinal alkaline phosphatase, 37 °C) cross-linked with 2.5 mM deuterated BS3, untreated cATPase with non-deuterated BS3, pooled; areas of extracted ion chromatograms of heavy and light cross-links compared.
Assay [2] concerns the target B7. The description is as above.
In assay [3] the target is T2, chloroplast ATP synthase (cATPase) subunit α, untreated enzyme (Spinacia oleracea, UniProt P06450 1-507, phosphosites identified at S127, Y196, S369, T442).
T2 construct: ATP synthase subunit alpha, chloroplastic, Spinacia oleracea; Three copies stand in the F1 head (α3β3); also called α subunit; source: purified from spinach leaves as part of the intact F1FO chloroplast ATP synthase
As to the kind of experiment: cross-linking; untreated cATPase, 1:1 mixture of 2.5 mM BS3-d4 and 2.5 mM BS3-d0, 1 h at room temperature; NuPAGE gel, in-gel digestion, LC-MS/MS, MassMatrix search, manual validation.

Assay [4] deals with B6. Described as above.
The target of assay [5] is T1, chloroplast ATP synthase (cATPase) …. The description is as above.

Results on seven molecules are retold here after publication PMC3709506, “Comparative cross-linking and mass spectrometry of an intact F-type ATPase suggest a role for phosphorylation” (Nature Communications, 2013).

For the molecule B1, the binding result in assay [1] and in assay [2] was “binds” each time.

Consider B2, for which the binding result in assay [3], in assay [4] and in assay [5] was “binds” in each case.

As for B3, in assay [2], the “fold decrease of cross-link intensity against the untreated enzyme (two cross-links, β loops to α C-terminal domain)” value is > 10 fold and the “fold decrease of the intensity of the K378-K498 cross-link against the untreated enzyme” value is ~5 fold.

On to B4, for which the binding result in assay [3] and in assay [4] was “binds” each time.

As for B5, the binding result in assay [1] and in assay [2] was “binds” in each case.

For B6, the binding result in assay [3] is reported as “binds”.

Regarding B7, the binding result in assay [1] is “binds”.
